Data: patent US20120321591A1 (COVX TECHNOLOGIES IRELAND, published 2012)
Bridges are numbered along the chain shown (N, C = ends). Where no end group is shown, it is not given here. [ ]: non-standard residue; d: D form. Phe(4-NO2) = N[C@@H](Cc1ccc([N+](=O)[O-])cc1)C(=O)O; Phe(4-COOH) = N[C@@H](Cc1ccc(C(=O)O)cc1)C(=O)O; Bpa = N[C@@H](Cc1ccc(C(=O)c2ccccc2)cc1)C(=O)O; Hyp = O=C(O)[C@@H]1C[C@@H](O)CN1; 0P linker = not defined here; 4P linker = not defined here; ThA = not defined here

T1: human angiopoietin-2 protein (human, UniProt O15123 19-496)
T1 construct: also called Ang-2; Ang2
T1 sequence (looked up): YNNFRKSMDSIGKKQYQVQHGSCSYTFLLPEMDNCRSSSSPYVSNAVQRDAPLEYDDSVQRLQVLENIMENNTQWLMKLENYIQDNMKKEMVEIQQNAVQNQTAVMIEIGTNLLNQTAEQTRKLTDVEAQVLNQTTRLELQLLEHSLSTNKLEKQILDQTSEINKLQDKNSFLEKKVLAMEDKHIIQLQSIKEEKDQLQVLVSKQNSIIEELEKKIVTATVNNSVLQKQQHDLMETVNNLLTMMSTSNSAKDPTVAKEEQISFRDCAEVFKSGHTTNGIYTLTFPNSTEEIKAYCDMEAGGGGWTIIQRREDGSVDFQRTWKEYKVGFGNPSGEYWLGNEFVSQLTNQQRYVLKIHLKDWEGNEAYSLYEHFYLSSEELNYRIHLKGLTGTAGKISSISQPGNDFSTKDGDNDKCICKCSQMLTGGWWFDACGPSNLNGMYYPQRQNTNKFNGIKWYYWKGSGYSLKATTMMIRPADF


Biological target: T1, human angiopoietin-2 protein
Experiment: reverse competition ELISA presumed: Ang-2 binding to coated Tie-2-Fc; peptide alone
Protocol: Plates were washed three times with washing buffer (0.1% Tween 20, PBS, pH 7.4) and blocked with Superblock, 150 μl/well at RT for 1 hour. Plates were washed three times. […] Plates were washed 3 times, and 50 W of streptavidin HRP (1:200 dilution in Superblock) was added at RT for 20 minutes. Plates were washed 3 times, and […] (25 μl TMB+25 μl H₂O₂) substrate solution was added and incubated for 20-30 minutes. Color development was stopped with 25 μl of 2 M H₂SO₄. OD450 nm with a correction wavelength of 540 nm was measured.

IC50 | Binder
14.4 nM | QXYQPLDELDKTLYDQFMLQQG (N-terminal acyl cap; C-terminal amino cap; Kac 2) [Compound 4022]
36.4 nM | QKYQPLDELDKTLYDQFMLQQG-NH2 (also: N-terminal acyl cap) [Compound 4021]

Biological target: T1, human angiopoietin-2 protein
Experiment: competitive ELISA: Tie-2-Fc binding to coated Ang-2; T
Protocol: (§1) Plates were washed three times with washing buffer (0.1% Tween 20, PBS, pH 7.4) and blocked with Superblock (Scytek), […] at room temperature (“RT”) for 1 hour. […] Plates were washed 3 times with washing buffer. […] Following incubation, 50 ul of 1:5,000 dilution of goat anti-mouse IgG-HRP in Superblock was then added and incubated at RT for one hour. After washing 3 times, […] was added, and incubated for 3-5 minutes. Color development was monitored and stopped with 25 μl of 2 M H₂SO₄. OD450 nm with a correction wavelength of 540 nm was measured.

Binder | IC50
QK(Ac)YQ[Hyp]LDE[ThA]DK(0P linker)TL[Bpa]DQFMLQQG-NH2 (not fully specified; reading uncertain; also: N-terminal acyl cap, acyl not given here) [Compound 4046, peptide plus linker (T)] | 82.7 nM
QXYQPLDELDXTLYDQFMLQQG (N-terminal acyl cap; C-terminal amino cap; Kac 2; 0P linker on Dab 11, also called 4054 T) [Compound 4054, peptide plus linker (T)] | 292 nM
QXYQPLDELDKTXYDQFMLQQG (N-terminal acyl cap; C-terminal amino cap; Kac 2; 0P linker on K11; HL 13, also called 4042 T) [Compound 4042, peptide plus linker (T)] | 1340 nM
QXYQPLDELDKTLYDQFMLQQG (N-terminal acyl cap; C-terminal amino cap; Kac 2; 0P linker on K11, also called 4029 T) [Compound 4029, peptide plus linker (T)] | 83.3 nM
QXYQPLDELDKTLYDQFMLQQG (not fully specified; N-terminal acyl cap; C-terminal amino cap; Nick 2; 0P linker on K11, also called 4061 T) [Compound 4061, peptide plus linker (T)] | 83.9 nM
QXYQXLDELDKTLYDQFMLQQG (not fully specified; N-terminal acyl cap; C-terminal amino cap; Kac 2; D(HP) 5; 0P linker on K11, also called 4034 T) [Compound 4034, peptide plus linker (T)] | 224 nM
QK(Ac)YQPLDEK(Ac)DKTL[Phe(4-COOH)]DQFMLQQG-NH2 (not fully specified (residue 11, N-terminus), also called 4062 T) [Compound 4062, peptide plus linker (T)] | 499 nM
QK(Ac)YQ[Hyp]LDE[ThA]DK(0P linker)TL[Phe(4-COOH)]DQFMLQQG-NH2 (not fully specified; reading uncertain; also: N-terminal acyl cap, acyl not given here, also called 4047 T) [Compound 4047, peptide plus linker (T)] | 43.3 nM
XQXYQPLDELDKTLYDQFMLQQG (DCB at N-terminus; C-terminal amino cap; Kac 2; 0P linker on K11, also called 4049 T) [Compound 4049, peptide plus linker (T)] | 28.4 nM
QXYQPLDELDXTLYDQFMLQQG (not fully specified; N-terminal acyl cap; C-terminal amino cap; Kac 2; 0P linker on Dap 11, also called 4055 T) [Compound 4055, peptide plus linker (T)] | 598 nM
QXYQPLDELDKTXYDQFMLQQG (N-terminal acyl cap; C-terminal amino cap; Kac 2; 0P linker on K11; Nva 13, also called 4041 T) [Compound 4041, peptide plus linker (T)] | 1340 nM
QXYQXLDELDKTLYDQFMLQQG (N-terminal acyl cap; C-terminal amino cap; Kac 2; HP 5; 0P linker on K11, also called 4035 T) [Compound 4035, peptide plus linker (T)] | 121 nM
QK(Ac)YQ[Hyp]LDE[ThA]DK(0P linker)TL[Phe(4-NO2)]DQFMLQQG-NH2 (not fully specified; reading uncertain; also: N-terminal acyl cap, acyl not given here, also called 4045 T) [Compound 4045, peptide plus linker (T)] | 24.7 nM

Continued, values first:

IC50 | Binder
14.3 nM | XQXYQPLDELDKTLYDQFMLQQG (PyC at N-terminus; C-terminal amino cap; Kac 2; 0P linker on K11, also called 4051 T) [Compound 4051, peptide plus linker (T)]
134 nM | XQXYQPLDELDKTLYDQFMLQQG (Amido 2-PEG at N-terminus; C-terminal amino cap; Kac 2; 0P linker on K11, also called 4052 T) [Compound 4052, peptide plus linker (T)]
279 nM | QXYQPLDEKDXTLYDQFMLQQG (N-terminal acyl cap; C-terminal amino cap; Kac 2; 0P linker on K9; Kac 11, also called 4030 T) [Compound 4030, peptide plus linker (T)]
300 nM | QNYQPLDELDK(4P linker)TLYDQFMLQQG-NH2 (reading uncertain; also: N-terminal acyl cap, printed as QNY QPL DEL DK(4P)T LYD QFM LQQ G, also called 4025 T) [Compound 4025, peptide plus linker (T)]
4890 nM | QXYQPLDELDKTXYDQFMLQQG (N-terminal acyl cap; C-terminal amino cap; Kac 2; 0P linker on K11; HF 13, also called 4039 T) [Compound 4039, peptide plus linker (T)]
110 nM | QNYQPLDELDKTL[Phe(4-COOH)]DQFMLQQG-NH2 (not fully specified (residue 11, N-terminus); also: N-terminal acyl cap, acyl not given here, also called 4057 T) [Compound 4057, peptide plus linker (T)]
33 nM | XQXYQPLDELDKTLYDQFMLQQG (DFB at N-terminus; C-terminal amino cap; Kac 2; 0P linker on K11) [Compound 4050, peptide plus linker (T)]
92.2 nM | QNYQPLDELDKTL[Bpa]DQFMLQQG-NH2 (not fully specified (residue 11, N-terminus); also: N-terminal acyl cap, acyl not given here, also called 4056 T) [Compound 4056, peptide plus linker (T)]
82.4 nM | QK(Ac)YQPLDEK(Ac)DK(0P linker)TL[Phe(4-NO2)]DQFMLQQG-NH2 (reading uncertain; also: N-terminal acyl cap, acyl not given here, printed as Q(Kac)Y QPL DE(Kac) DK(0P)T L(NO2)FD QFM LQQ G, also called 4048 T) [Compound 4048, peptide plus linker (T)]

Biological target: T2, recombinant human VEGF165 (human, UniProt P15692-4 27-191)
T2 construct: also called rhVEGF165
T2 sequence (P15692 other isoform, or with tags, fused parts or gaps limits assumed): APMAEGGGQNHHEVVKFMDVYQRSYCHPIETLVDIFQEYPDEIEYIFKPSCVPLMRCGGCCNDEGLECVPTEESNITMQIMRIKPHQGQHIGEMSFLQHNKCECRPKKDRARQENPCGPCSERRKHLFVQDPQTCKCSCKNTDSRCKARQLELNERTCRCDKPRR
Experiment: competition ELISA: VEGF165 binding to coated VEGFR2/Fc; normalized value

IC50 | Binder
325 nM | Ac-VEPNCDIHVMWVWECFERLYGGW-NH2 (disulfide 5-15 (inferred)) [[VEGF-Peptide] SEQ ID NO:35]
70 nM | Ac-VEPNCDIHVMWVWECFERLYREL-NH2 (disulfide 5-15 (inferred)) [[VEGF-Peptide] SEQ ID NO:39]
172 nM | Ac-VEPNCDIHVMWVWVCFERLFREA-NH2 (disulfide 5-15 (inferred)) [[VEGF-Peptide] SEQ ID NO:36]
59 nM | Ac-VEPNCDIHVMWVWVCFERLFKEA-NH2 (disulfide 5-15 (inferred)) [[VEGF-Peptide] SEQ ID NO:37]
188 nM | Ac-VEPNCDIHVMWEWECFERL-NH2 (disulfide 5-15 (inferred)) [[VEGF-Peptide] SEQ ID NO:34]

Biological target: T2, recombinant human VEGF165
Experiment: as above
Remark: another data set of the same source

IC50 | Binder
188 nM | Ac-VEPNCDIHVMWEWECFERL-NH2 (disulfide 5-15 (inferred)) [[VEGF-Peptide] SEQ ID NO:34]

Biological target: T1, human angiopoietin-2 protein
Experiment: competitive ELISA: Tie-2-Fc binding to coated Ang-2; peptide alone
Protocol: as §1

IC50 | Binder
41.9 nM | QXYQPLDELDKTLYDQFMLQQG (N-terminal acyl cap; C-terminal amino cap; Kac 2) [Compound 4022]
27.8 nM | QNYQPLDELDKTLYDQFMLQQG-NH2 (also: N-terminal acyl cap) [Compound 4023]
25.8 nM | QKYQPLDELDKTLYDQFMLQQG-NH2 (also: N-terminal acyl cap) [Compound 4021]
